Laboratory results taken from US20190144559A1 (Daiichi Sankyo, published 2019).

T1: Recombinant Human TROP-2 Fc chimera (human, UniProt P09758 27-274, limits assumed)
T1 construct: Used as the analyte in Biacore; also called antigen (Recombinant Human TROP-2 Fc chimera); not shown: Fc part and any linker of the chimera are not described
T1 sequence (looked up): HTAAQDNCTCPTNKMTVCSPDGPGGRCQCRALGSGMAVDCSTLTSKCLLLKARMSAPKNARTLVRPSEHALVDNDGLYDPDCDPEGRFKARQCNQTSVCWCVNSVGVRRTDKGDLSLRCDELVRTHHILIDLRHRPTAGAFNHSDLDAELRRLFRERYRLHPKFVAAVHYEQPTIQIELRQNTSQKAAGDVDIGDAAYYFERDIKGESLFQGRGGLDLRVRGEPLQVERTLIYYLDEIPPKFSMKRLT


Key:
[1] = target: T1, Recombinant Human TROP-2 Fc chimera; assay: SPR Biacore 3000, antibody from culture supernatant captured on anti-human IgG (Fab), antigen as analyte, bivalent model
[2] = target: T1, Recombinant Human TROP-2 Fc chimera; assay: SPR Biacore 3000, purified antibody captured on anti-human IgG (Fab), antigen as analyte, bivalent model

Binder | Kd [1] [nM] | Kd [2] [nM]
cTINA1 antibody (antibody, human IgG1, V domains shown, Mouse TINA1 variable regions on human IgG1/kappa constant regions; also called human chimeric TINA1 antibody; chimeric TINA1) VH: QIQLVQSGPELKKPGETVRISCKASGYTFTTAGMQWVQKMPGKGLKWIGWINTHSGVPKYAEDFKGRFAFSLETSASTAYLQISNLKNEDTTTYFCARSGFGSSYWYFDVWGAGTAVTVSS VL: DIVMTQSHKFMSTSVGDRVSITCKASQDVSTAVAWYQQKPGQSPKLLIYSASYRYTGVPDRFTGSGSGTAFTFTISSVQAEDLAVYYCQQHYITPLTFGAGTKLELKR | 56 | –
hTINA1-H2L1 (antibody, human IgG1, kappa, Human IgG1/kappa; also called hTINA1 antibody) heavy: not shown light: DIQMTQSPSSLSASVGDRVTITCKASQDVSTAVAWYQQKPGKAPKLLIYSASYRYTGVPSRFSGSGSGTDFTLTISSLQPEDFAVYYCQQHYITPLTFGQGTKLEIKRTVAAPSVFIFPPSDEQLKSGTASVVCLLNNFYPREAKVQWKVDNALQSGNSQESVTEQDSKDSTYSLSSTLTLSKADYEKHKVYACEVTHQGLSSPVTKSFNRGEC | 69 | 30
hTINA1-H1L1 (antibody, human IgG1, kappa, V domains shown, Human IgG1/kappa; also called hTINA1 antibody; humanized TINA1) VH: QVQLVQSGAEVKKPGASVKVSCKASGYTFTTAGMQWVRQAPGQGLEWMGWINTHSGVPKYAEDFKGRVTISADTSTSTAYLQLSSLKSEDTAVYYCARSGFGSSYWYFDVWGQGTLVTVSS VL: DIQMTQSPSSLSASVGDRVTITCKASQDVSTAVAWYQQKPGKAPKLLIYSASYRYTGVPSRFSGSGSGTDFTLTISSLQPEDFAVYYCQQHYITPLTFGQGTKLEIKR | 63 | 27
hTINA1-H2L2 (antibody, human IgG1, kappa, Human IgG1/kappa; also called hTINA1 antibody) heavy: not shown light: DIVMTQSPSSLSASVGDRVTITCKASQDVSTAVAWYQQKPGKAPKLLIYSASYRYTGVPSRFSGSGSGTDFTLTISSLQPEDFAVYYCQQHYITPLTFGQGTKLEIKRTVAAPSVFIFPPSDEQLKSGTASVVCLLNNFYPREAKVQWKVDNALQSGNSQESVTEQDSKDSTYSLSSTLTLSKADYEKHKVYACEVTHQGLSSPVTKSFNRGEC | 71 | 27
hTINA1-H3L3 (antibody, human IgG1, kappa, V domains shown, Human IgG1/kappa; also called hTINA1 antibody) VH: QIQLVQSGAEVKKPGESVKVSCKASGYTFTTAGMQWVQQMPGKGLEWMGWINTHSGVPKYAEDFKGRVTFSLDTSTSTAYLQLSSLKSEDTAVYYCARSGFGSSYWYFDVWGQGTLVTVSS VL: DIVMTQSPSSLSASVGDRVTITCKASQDVSTAVAWYQQKPGKQPKLLIYSASYRYTGVPSRFSGSGSGTDFTLTISSLQPEDFAVYYCQQHYITPLTFGQGTKLEIKR | 58 | 15
hRS7 antibody (antibody, V domains shown) VH: QVQLQQSGSELKKPGASVKVSCKASGYTFTNYGMNWVKQAPGQGLKWMGWINTYTGEPTYTDDFKGRFAFSLDTSVSTAYLQISSLKADDTAVYFCARGGFGSSYWYFDVWGQGSLVTVSS VL: DIQLTQSPSSLSASVGDRVSITCKASQDVSIAVAWYQQKPGKAPKLLIYSASYRYTGVPDRFSGSGSGTDFTLTISSLQPEDFAVYYCQQHYITPLTFGAGTKVEIKR | – | 0.3
